Source: patent US20020052481A1
Read-outs that look alike come from different tables or passages of the source.

How the values were obtained:
[1] = biological target: recombinant gp120 from the laboratory-adapted strain HIV-1LAI (HIV-1LAI) (UniProt P03377); test: modified ELISA, gp120 captured on plate
[2] = biological target: recombinant gp120 from the primary isolate HIV-1JR-FL (HIV-1JR-FL); test: modified ELISA, gp120 captured on plate
[3] = biological target: HIV-1JR-FL envelope glycoprotein gp120/gp41 on cells (HIV-1JR-FL)
[4] = biological target: HIV-1LAI envelope glycoprotein gp120/gp41 on cells (HIV-1LAI) (UniProt P03377)
[5] = biological target: HIV-1JR-FL envelope glycoprotein gp120/gp41 on cells (HIV-1JR-FL); remark: listed apart in the source

Substance: CD4-IgG2 chimeric heterotetramer (Fc fusion)
- EC50 [1]: 1.47 nM
- EC50 [2]: 1.27 nM

Substance: ^125I-CD4-IgG2 (Fc fusion)
- EC50 [3]: 12.8 nM
- EC50 [4]: 19 nM
- EC50 [5]: 10 to 40 nM
- EC50 [1]: 1.05 nM
- EC50 [2]: 2.36 nM
